B2: BC: EloB (1-118) / EloC (17-112) heterodimer (other)
chain 1: MGDVFLMIRRHKTTIFTDAKESSTVFELKRIVEGILKRPPDEQRLYKDDQLLDDGKTLGECGFTSQTARPQAPATVGLAFRADDTFEALCIEPFSSPPELPDVMKPQDSGSSANEQAVQENLYFQ
chain 2: MGYVKLISSDGHEFIVKREHALTSGTIKAMLSGPGQFAENETNEVNFREIPSHVLSKVCMYFTYKVRYTNSSTEIPEFPIAPEIALELLMAANFLDC
notes: also called EloBC; EloBC heterodimer

What was measured:
[1] = biological target: B2
[2] = biological target: T1, BCvif95-155: EloB (1-118) / EloC (17-112) / Vif (95-155) (human; HIV-1 HXB2, UniProt P69723 95-155); assay: ITC, 30 C
T1 construct: range 95-155

[3] = biological target: T2, EloB(1-118)/EloC(17-112)/Vif(95-173) (human; HIV-1 (group M, subtype B), UniProt Q15370 2-118; Q15369 18-112; P31820 95-173); assay: ITC, 30 C
[4] = biological target: T3, EloB(1-104)/EloC(17-112)/Vif(102-173) (human; HIV-1 (group M, subtype B), UniProt Q15370 2-104; Q15369 18-112; P31820 102-173); assay: ITC, 30 C
[5] = biological target: T4, BCvif95-160: EloB (1-118) / EloC (17-112) / Vif (95-160) (human; HIV-1 HXB2, UniProt P69723 95-160); assay: ITC, 30 C
T4 construct: range 95-160

[6] = biological target: T5, BCvif95-192: EloB (1-118) / EloC (17-112) / Vif (95-192) (human; HIV-1 HXB2, UniProt P69723 95-192)
[7] = biological target: T2, EloB(1-118)/EloC(17-112)/Vif(95-173)
[8] = biological target: T3, EloB(1-104)/EloC(17-112)/Vif(102-173)
[9] = biological target: T4, BCvif95-160: EloB (1-118) / EloC …
[10] = biological target: T5, BCvif95-192: EloB (1-118) / EloC …; assay: ITC, 30 C; Cul5(N) titrated into the complex
[11] = biological target: T6, BCvifVF: EloB (1-118) / EloC (17-112) / vif (95-192) (A123V, L124F) (human; HIV-1 HXB2, UniProt P69723 95-192); assay: ITC, 30 C; A123V/L124F mutant
T6 construct: range 95-192

[12] = biological target: B2; assay: ITC, 30 C; untagged Cul5(N) titrated into EloBC
[13] = biological target: T5, BCvif95-192: EloB (1-118) / EloC …; assay: ITC, opposite injection order; BCvif95-192 titrated into Cul5(N)
[14] = biological target: T7, BCvifSS: EloB (1-118) / EloC (17-112) / vif (95-192) (A123S, L124S) (human; HIV-1 HXB2, UniProt P69723 95-192); assay: ITC, 30 C; A123S/L124S mutant
T7 construct: range 95-192

[15] = biological target: T7, BCvifSS: EloB (1-118) / EloC (17-112) / …
[16] = biological target: T6, BCvifVF: EloB (1-118) / EloC (17-112) / …
[17] = biological target: the molecule itself; assay: sedimentation velocity AUC; self-association

B1: Cul5(N), human Cullin5 residues 2-384 (V341R, L345D) after removal of GST (other)
chain: GPMHMGGSTSNLLKNKGSLQFEDKWDFMRPIVLKLLRQESVTKQQWFDLFSDVHAVCLWDDKGPAKIHQALKEDILEFIKQAQARVLSHQDDTALLKAYIVEWRKFFTQCDILPKPFCQLEITLMGKQGSNKKSNVEDSIVRKLMLDTWNESIFSNIKNRLQDSAMKLVHAERLGEAFDSQLVIGVRESYVNLCSNPEDKLQIYRDNFEKAYLDSTERFYRTQAPSYLQQNGVQNYMKYADAKLKEEEKRALRYLETRRECNSVEALMECCVNALVTSFKETILAECQGMIKRNETEKLHLMFSLMDKVPNGIEPMLKDLEEHIISAGLADMVAAAETITTDSEKYREQLDTLFNRFSKLVKEAFQDDPRFLTARDKAYKAVVNDATIFK
notes: also called untagged Cul5(N)
- N [1]: 0.924
- ΔH [1]: -9200
- ΔS [1]: -6.39
- Kd [2]: 213 nM
- Kd [3]: 337 nM
- Kd [4]: 288 nM
- Kd [5]: 285 nM
- ΔH [6]: -5210
- ΔS [6]: 12.6
- N [7]: 0.869
- ΔH [7]: -5630
- ΔS [7]: 11.1
- N [8]: 0.826
- ΔH [8]: -4950
- ΔS [8]: 13.6
- ΔH [9]: -5090
- ΔS [9]: 13
- Kd [10]: 327 nM
- Kd [11]: 847 nM
- Kd [12]: 6350 nM
- Kd [13]: 420 nM
- Kd [14]: 397 nM
- ΔH [15]: -7380
- ΔS [15]: 4.97
- ΔH [16]: -4550
- ΔS [16]: 13.1

Binder: B2
- binding result [17]: no binding (tested: 0.19, 0.37, and 1.88 mg ml^-1)
